The data set is described as follows: protease stability score; higher = more stable; yeast display proteolysis, trypsin and chymotrypsin.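 Note: relative to predicted unfolded state with 0 unfolded-like and 1 meaning tenfold more protease.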
As for “DEEQEIMEHILEELLRIDWTGDEHVLERLLDPNMQLEFNGVRLVGMEEVQRWLRRFLTEIRIHDFKVHDFHSFNGRLHSDVEVDFQVNGQRHITRVRLNLEVINGVVHRVEVRHE”, the protease stability score is 2.17.
With “DEEQELLLRIFERWLEFLLTGDEDTMHRLFDPDVKSRIGDFNHHGRELVLEAHQWFLKHARLKEFIRRDIHAINGRINMKGDVRVDVNGQEWEDHIRIHLVVVNGKMREIHIEEK” the figure was 1.38; with “DEEQELTEMVFRIIKRLNETGNEEELRRNADPHVRLDWNGVHYHGREVYDHVWNMLGFEIKDTRIRDIRMQGEKIFVDGERRGNINGRTIDTRIIIIIIAVNGRMKEIVIRDL”, 1.3; with “DEEQHRMEEELRKMFEHLFTGDFKWLHKNVDPNARLDIGDKHVHGREAMVELIIRHVESLGVDHVKIRHVEVQGEKIEIRGESKVGDWKFSHHINVIVVDGVHKHFRIENR”, 0.684.
For “DEEQKAADRVNQLHTESMLTGDEDEFKHLADPNTKFLINGVEFHGRDTLHRWLSEIRLHHHHFEVKHLNFYGDFVEVEGHVRLVFHVNGRRIDVSTRVRWIIEKVDGRWYVRQIHIN”, the protease stability score came to 1.68.
Sequence “DEEQKEALHFLENLVRSWITGDEETLKRLFDPHYRVHAENRELHGWEDVIHTAVRESEEIRLHHVKIEHLEFVDGQIFIHLNFDIDINGRREHVHTHVILLKINGRWILTKIEFH” came in with a protease stability score of 1.38.
For the sequence “DEEQNHFFESIKELTHSWRTGDEERVTKLADPNVRLEINGRDIVGMERFSKLMIELRVHDLKIHRIRVVNGKVESDIEMHIHQGDKHSVTETHIFARKVDGKWILESIRIG”, the protease stability score was 1.07.
Sequence “DEEQQDLIEVVNRYLRAVLTGDEDDLRELLDPHYRIRIGDKEFVGWKEFIRHVREARYTIHRWSVDSVEIIGDKVILYGELDGIEKVNGKTIKKRFEVIFYINKIDGRWHFKHIEFH” came in with a protease stability score of 2.29.
“DEEQRHAHKIVDRLLELIMTGDEDDLYRLADPNTRIDINGKKFHGMDFWFHLLRRVDHFEVEDFSLKRSDRVDGVAELDHRTTIRVIIGDKTIRLEIRHRMWVVKVDGRWKIEEVVIR” had a protease stability score of 1.04.
As for “DEEQRVEEEMAEMQRLWHETGDEESIQKNLDPRTRIVIHINGKEIRLHGREAWLKEVRRLGVKYLRIEDMEVVDGRVHARIHYTVNGVKIRIRVEFYIVDGRMEEIRRHWE”, the figure is 0.432.
As to “DEEQTQMEETVNVVLSAMRTGDEETSKKLADPNVKIRINGREFHGRDFYAHVILMFGIDHIEMRIERYEFQGEKLILRGRLRLEFNGKEETSDVIEIWWKVDGRWHLDNYYEN”, the protease stability score amounted to 1.37.
For the sequence “DEERDEARRVLEIFIKVFRTGDWHILHELADPHVRMDVNGREFIGREDYVKFFRYEMEIFGVERIDIKIHDVHVYNGRIEVHTRQNINGKERDTHLEIHKINGQWHLRDVRIH”, the protease stability score was determined as 1.44.
As for “DEERDETRELLRRLQELLRTGDEEEIRKLADPHVRSDVNGREYHGRDWATHLIMRFDHLDIERIRIFDGRIETDFRVEIGDKTFQTRMHVRKIDGRWNIKEIKII”, the figure is 1.55; as for “DEERDHLLEISQRIIHSWVTGDWKLFARLIDPHARLIFHFENVDLHYHGREQVVTFIIEMRIQHIDIRRYTVQGNKVHIDGHQKIEIGDKSIRTDSEMNSIIVNGKLHETFLIFK”, 1.45.
In turn, “DEEREDIEKVTHILSEIWETGDEHRLHRMLDPNTKVVIDGVEIHGRELIIRFRKELRHKLGLDRIEVDIDHIEVQGDKAISDTSIDYNGREFKVINTVHKYNGRWLVHRIIHE” displayed a protease stability score of 0.815.
“DEEREDVETHLRVLYDLILTGDEEDIRNLLDPHVRLDFNGKDIHGMERVSHHMRELRIERLEIKRWDVVNGRVHMDLHIVFHYGDKRRDTEVHVIMLKIDGRWHLESIHIK”: the protease stability score worked out at 2.21.
For “DEEREELHRHIKILNKAWTTGDERLLYELMDPHAKINIDGVDFIGREEATEEYHHRWRHLGVDHFEVRFTEIHDIDGRLHMQTKLNLIVNGQREERHTRVHVRKINGRWLVHNLEIR”, the protease stability score came to 0.125.
“DEEREFSERAIEMSLEDWLTGDEHRMHRMLDPHVRLDIDGRDIIGRERMTKIIFEINKTLGVDHVEFHDHEIQGDKVHSHLDVHINGRRLRITLHLYKIDGRWQIREVKVV”: the protease stability score turned out to be 1.13.
With “DEEREHSEEALLLLLHLIMTGDEEELIKNVDPNARITQGDKEFHGREVVIKHLFELMHRFGVKHFTVDHVEIFNGRLFIRFTLHFNGRKIDEHLILVKINGRWLLKSMEIK” the figure was 2.21; with “DEEREIIETFFRESLEVIKTGDWKTFDDLLDPRARLNIGDKDYHGRHEIVRQWHKQFKDLGVDHIENKDLRIFDGKIETHFDLEVGDKRIHLEFHATKIDGRWLFHEIRVQ”, 1.97; with “DEEREKSELAIKIMKHVWETGDETLKSELFDPNARIHIDGKEIVGREEIEDQLRHIRMHITMFDINSTKFVDGRLEVYLNRRVRLFFDGREIEEEQHIHVVLLKINGRWQLQELEVT”, 1.36.
The sequence “DEEREKVIRFLERFQESSRTGDEETLHRLADPNVKLTVDGRELHGREVMVRYAIEWRIEDVEPKRYTEQGDKLILHVRIHTTIGDKHEVREVDLFVRKIDGRWIMEEFRVR” displayed a protease stability score of 0.96.
In turn, “DEERELAKWAEEMLRRRFETGNERFWEELADPNTRSDINGVELIGRETVVHFLREEQRHMGVDHTDVKHTNVELQGDKVIVRMDVELHFDGVTVRSTLSYTSIKFNGRWILHSIEHHIH” gave a protease stability score of 1.13.
“DEERELLDHLAKFILSVVRTGDWESMLRMADPNARIQIDGREYHGMDFFIRHWWELGIDHERIDKIDIQGDKLFIHRTLEYDGQEIDSELYIIVINGKLKSIDIRIR” showed a protease stability score of 0.764.
In turn, “DEERELLKFFLKAWSKALVTGDEQTLLDLVDPNARNVIGDKDLIGREFLEKVLREMRITEVHIEDIKFQGEFVTSDLRMRVRQGDKEFDIRVRLVVYKYDGRWVFKTFHME” displayed a protease stability score of 2.23.
In the case of “DEERELLKRFIELWFHAIKTGDEDQLIRLLDPHVRIDINGVDIHGMEKYIHEHLRLERERGFEIRDFKIKHIEIQGEKAHVDTRLSGMVDGRHVDVRNRFIIYKFNGRWIFHSFHVD”, the protease stability score amounted to 1.24.
The sequence “DEERELTEKLTRKLIHNWLTGDPEAIRRMLDPNVRVIINGQELHGRERFHEHMHHLLRHMRIDHIDIKDWKFQGEKFHIDLHVHGTIDGVHFIHRTESSVIIVNGKIHQMHVHEI” registered a protease stability score of 1.41.
In the case of “DEERELYKRHWDRLNRAIHTGDEEEVRRLADPDYKIRIGDKTLHGREDIKKFLEHIRISVESFEIKDMHDIDGVIEVDGKVELRLVVDGRTFRIETRVVYYILKVNGRWLMHSEIYH”, the protease stability score stood at 0.82.
As for “DEERENAERMLKAWVEILETGDEHRISRLLDPNVQFQIGDKHLHGREDVLRHLSEMIKKVKNLTISIHSINIQGDKVHVDGHIHVNGVDHKNDLILLKVNGRWFVTSLKIE”, the figure is 1.78; as for “DEERENIEKALRLLEHFNKTGNEEDINRLMDPHARSHINGKDVHGREEVVRMLRELGVERIEVEDLEIERSKQVDGRIEIHVHTVVNFNGRHTEFRVEIIAVKVNGKWIMRSVIFE”, 1.56.
With “DEERERREDETRLLLEILITGDEDRFRQLADPHMKLHIGDKDFIGREVAVKFLRDLWREFGIKHILFEDSTIVGDKLEHRMHLEVNGKRRRMELENVIIDGRVHSMHIRIH”, the protease stability score was 1.39.
As for “DEERHDAEEASREIMRSYETGDETEYLNLLDPHARMTVGDKEFHGREDILRWWHELNEKLGVDRIHLHLEHIRVINGVVESHVRLNVNGREHRVELLVYKVNGRWLIREMHFR”, the figure is 1.68; as for “DEERHEALRVAKEFMHNFWTGNEELNRHLIDPNVRLTIEVGDKRIDRVGRESFSHTLHRWREHLRIEDLDETRIDVQGDKAVLHTIMHIKIGDKHITVEVDINILVVDGRLRHIRVIVR”, 2.01.
The sequence “DEERHHFERVYEELMHVRRTGDWERYWELLDPDARLEINGQKYHGREDVLKAVTDIMRHWREKEFDFKRMDVQGDKVKIEGRVNGNFNGRDINTDVEIQITVVDGRLRHERFIIK” returned a protease stability score of 1.71.
“DEERHILEELMRILTEAMHTGDEHLLEWLLDPHMIIEIGDKTLHGRDQILRVVEEIRRHIRRIEVKHSHVQGDKIRIEGHMHSETEFNGRRFSFTVYVEIIIVKINGVWRIRSLHIH”: the protease stability score is 1.39.
Sequence “DEERHYVEHIIKLLSRHIYTGDFEAFEELLDPNALIIIGDKHLVGREDWRRLVHEIRIRNEHVEIEDVNVYDGRAESKVTFHGRREYDGRTTETNLDVNYFLLKINGRWVFESLEIR” registered a protease stability score of 1.67.
In the case of “DEERKDFEEALKKWLESMETGDEKHLEELFDPNAKFLIDGVELHGREVFKEFLRRFKNVRVEELHLDHLEVQGDKVITHVTFRGTFNGKHENVHRILIAVKFDGRWFVRSIEVH”, the protease stability score worked out at 2.34.
For the sequence “DEERKDTKEAIERVRDTWRTGDEQDIFNNVDPNTRMIVGDKHHHGMEDVARLAFEWRVHDFRFHEVHSSEDHVILDGRVDGEINGRRINTKMILILLKIDGRWHIESIQYI”, the protease stability score is 0.805.
As for “DEERKEFEEVFRQWIHALRTGDEDSELRNLDPNARIVVGDKEVHGREESERYLRETLHRADHMDFELHRLDVQGDKVHIDGTMILVVNGQEIRYRIHFISVKIDGRWLLRSVIIH”, the figure is 1.86; as for “DEERKELEEALRELKHSWETGDWRSLSEMADPNVLLKQGDFEYHGRELFLEFMRHLIEHLGIKHVEIRDMKIFENRVDMDVIIRFNGQTTRIQIILVKFNGRWFIKSVIIR”, 2.02.
In turn, “DEERKESQKALELMLELFQTGDEEELSKFADPHVRLEFRVGDKRFEIHGREEVSRFFHELIWRIKNLRLTRHNDEVQGEKVIIHFELRQGDKRSEINIIAIKINGRWFIKHETVILL” came in with a protease stability score of 1.62.
As for “DEERKETEEATRQDIHDFRTGDEKSFDEFFDPNVRLDINGVRVHGRELASKWFRDFFRELGVKHSEIEHREIQGEKAIVNEDVRVGDKRVEVILVYLKINGRWEITTVTLRHE”, the figure is 1.05.
Sequence “DEERKEYEDALTLFIEYLLTGDFERLEHLADPTTRLIVNGQEFHGRELVMRQLLEIRFHDHKLHDYKVVNGVAILDTRDRGIINGQETIFKTHIVLQKIDGRWVLRRYEIR” gave a protease stability score of 1.38.
For the sequence “DEERKFLKKMHEILDKSERTGNEEDIMRLVDPEVRLTVGDKELHGWSAMHEYFKRWIDKFPGVRVHFELNDITIVDGRILNIVHTKFEFDGREFQLTATIFAHKYDGRWTLTSMRYE”, the protease stability score turned out to be 1.09.
With “DEERKFWEEVMRLMREAFETGDEHLIERMADPHVRINIIVDGREIEFHGWEILVDLMKFVKGMQFTLKDSDIINGVLKIDGKTRQGDKITDVEIEFHVVNGRVKEIHVHIL” the figure was 2.48; with “DEERKFWHELAELLFHIHLTGDEDMLRHLLDPHVRSDINGVELHGREQAAEHFHKLMKTLGVKHIHHKRMHTIGDKTIIHGESEVDGRILHVHNHFWVVNGKVEEVKMHIE”, 0.495; with “DEERKHSEDLKDMHLKSMLTGDEEFISHLADPNVRIVFNGRDLHGRELLHEILKRINEELGVSNIEVRLHHIEIVGEWVHIHGRLHWNGRTSRIHLLLFKIDGQWNIKSIHIEIE”, 1.22.

Source of the values: the NTF2 design screens of Basanta et al. (2020).
